Values quoted from earlier work as cited in publication PMC9326902.

Biological target: Hemoglobin (Homo sapiens) (UniProt P69905)
Sequence of UniProt P69905 (P69905 2-142, chain 1 of 2): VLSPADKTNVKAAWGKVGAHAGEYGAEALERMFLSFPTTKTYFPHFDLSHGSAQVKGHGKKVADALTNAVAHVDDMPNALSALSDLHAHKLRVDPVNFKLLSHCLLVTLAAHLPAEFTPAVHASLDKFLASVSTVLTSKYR
Sequence of UniProt P69905 (P68871 2-147, chain 2 of 2, further chain): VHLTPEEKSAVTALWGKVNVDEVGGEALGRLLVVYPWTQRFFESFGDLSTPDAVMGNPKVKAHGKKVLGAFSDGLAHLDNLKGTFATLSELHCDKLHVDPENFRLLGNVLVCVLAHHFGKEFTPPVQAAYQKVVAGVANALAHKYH

In the case of IsdH N2 (from UniProt Q2FXJ2), the Kd is listed as 7.5 µM.
